Test results reported in IntAct's records for PubMed 24910198.

B1: SWI/SNF-related matrix-associated actin-dependent regulator of chromatin subfamily A-like protein 1 (Homo sapiens), Q9NZC9 (parent)
chain: MSLPLTEEQRKKIEENRQKALARRAEKLLAEQHQRTSSGTSIAGNPFQAKQGPSQNFPRESCKPVSHGVIFKQQNLSSSSNADQRPHDSHSFQAKGIWKKPEEMPTACPGHSPRSQMALTGISPPLAQSPPEVPKQQLLSYELGQGHAQASPEIRFTPFANPTHKPLAKPKSSQETPAHSSGQPPRDAKLEAKTAKASPSGQNISYIHSSSESVTPRTEGRLQQKSGSSVQKGVNSQKGKCVRNGDRFQVLIGYNAELIAVFKTLPSKNYDPDTKTWNFSMNDYSALMKAAQSLPTVNLQPLEWAYGSSESPSTSSEGQAGLPSAPSLSFVKGRCMLISRAYFEADISYSQDLIALFKQMDSRRYDVKTRKWSFLLEEHSKLIAKVRCLPQVQLDPLPTTLTLAFASQLKKTSLSLTPDVPEADLSEVDPKLVSNLMPFQRAGVNFAIAKGGRLLLADDMGLGKTIQAICIAAFYRKEWPLLVVVPSSVRFTWEQAFLRWLPSLSPDCINVVVTGKDRLTAGLINIVSFDLLSKLEKQLKTPFKVVIIDESHFLKNSRTARCRAAMPVLKVAKRVILLSGTPAMSRPAELYTQIIAVKPTFFPQFHAFGLRYCDAKRMPWGWDYSGSSNLGELKLLLEEAVMLRRLKSDVLSQLPAKQRKIVVIAPGRINARTRAALDAAAKEMTTKDKTKQQQKDALILFFNRTAEAKIPSVIEYILDLLESGREKFLVFAHHKVVLDAITQELERKHVQHIRIDGSTSSAEREDLCQQFQLSERHAVAVLSITAANMGLTFSSADLVVFAELFWNPGVLIQAEDRVHRIGQTSSVGIHYLVAKGTADDYLWPLIQEKIKVLAEAGLSETNFSEMTESTDYLYKDPKQQKIYDLFQKSFEKEGSDMELLEAAESFDPGSASGTSGSSSQNMGDTLDESSLTASPQKKRRFEFFDNWDSFTSPL
B2: TIMELESS-interacting protein (Homo sapiens), Q9BVW5 (parent)
chain: MLEPQENGVIDLPDYEHVEDETFPPFPPPASPERQDGEGTEPDEESGNGAPVRVPPKRTVKRNIPKLDAQRLISERGLPALRHVFDKAKFKGKGHEAEDLKMLIRHMEHWAHRLFPKLQFEDFIDRVEYLGSKKEVQTCLKRIRLDLPILHEDFVSNNDEVAENNEHDVTSTELDPFLTNLSESEMFASELSRSLTEEQQQRIERNKQLALERRQAKLLSNSQTLGNDMLMNTPRAHTVEEVNTDEDQKEESNGLNEDILDNPCNDAIANTLNEEETLLDQSFKNVQQQLDATSRNITEAR

Variants of: B1
Settings: with rfa2_human RPA2, P15927
Target sequence in this assay (P15927 whole entry): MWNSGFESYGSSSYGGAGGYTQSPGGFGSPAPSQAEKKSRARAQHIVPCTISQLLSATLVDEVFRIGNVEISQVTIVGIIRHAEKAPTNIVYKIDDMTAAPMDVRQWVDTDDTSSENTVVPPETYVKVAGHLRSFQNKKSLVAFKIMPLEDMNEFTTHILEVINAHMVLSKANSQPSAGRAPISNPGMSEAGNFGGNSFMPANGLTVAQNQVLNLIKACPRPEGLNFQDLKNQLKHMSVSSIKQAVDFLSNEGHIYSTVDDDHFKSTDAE

Variant | effect of a mutation on the interaction
R17A;Q18A;K19A | decreasing interaction

Variants of: B1
Settings: with rfa2_human RPA2, P15927
Remark: another data set of the same source
Target sequence in this assay (P15927 whole entry): as above

Variant | effect of a mutation on the interaction
N16A;R17A | decreasing interaction

Variants of: B1
Settings: with rfa2_human RPA2, P15927
Remark: another data set of the same source
Target sequence in this assay (P15927 whole entry): as above

Variant | effect of a mutation on the interaction
Q9A | decreasing interaction

Variants of: B1
Settings: with rfa2_human RPA2, P15927
Remark: another data set of the same source
Target sequence in this assay (P15927 whole entry): as above

Variant | effect of a mutation on the interaction
K12A;I13A | decreasing interaction

Variants of: B1
Settings: with rfa2_human RPA2, P15927
Remark: another data set of the same source
Target sequence in this assay (P15927 whole entry): as above

Variant | effect of a mutation on the interaction
L5A | decreasing interaction

Variants of: B1
Settings: with rfa2_human RPA2, P15927
Remark: another data set of the same source
Target sequence in this assay (P15927 whole entry): as above

Variant | effect of a mutation on the interaction
A20S;L21S | decreasing interaction

Variants of: B1
Settings: with rfa2_human RPA2, P15927
Remark: another data set of the same source

Variant | effect of a mutation on the interaction
K27A | decreasing interaction

Variants of: B2
Settings: with rfa2_human RPA2, P15927

Variant | effect of a mutation on the interaction
MLEPQENGVIDLPDYEHVEDETFPPFPPPASPERQDGEGTEPDEESGNGAPVRVPPKRTVKRNIPKLDAQRLISERGLPALRHVFDKAKFKGKGHEAEDLKMLIRHMEHWAHRLFPKLQFEDFIDRVEYLGSKKEVQTCLKRIRLDLPILHEDFVSNNDEVAENNEHDVTSTELDPFLTNLSESEMFASELSRSATEEQQQRIERNKQLALERRQAKLLSNSQTLGNDMLMNTPRAHTVEEVNTDEDQKEESNGLNEDILDNPCNDAIANTLNEEETLLDQSFKNVQQQLDATSRNITEAR [L195A] | decreasing interaction
